# Measurements: patent publication US6638941B1, “Conformationallly constrained peptidomimetics as β-turn templates and modulators of SH3 domains” (OSI Pharmaceuticals, Inc., priority 1997, dated 2003)
# Key:
# Lyn SH3 domain = biological target: T1, Lyn SH3 domain (Homo sapiens, UniProt P07948); test: Inhibition of Lyn SH3-GST fusion protein binding to immobilized p85 proline-rich peptide, surface plasmon resonance (BIAcore); details: Lyn SH3-GST fusion protein (1 μM) incubated with 0.01-100 μM spirolactam or non-biotinylated canonical peptide prior to injection; 25° C.; concentration behind the values not stated
# T1 construct: Lyn SH3-GST fusion proteins were generated as previously described; made in house
# T1 sequence (P07948 63-123 limits assumed): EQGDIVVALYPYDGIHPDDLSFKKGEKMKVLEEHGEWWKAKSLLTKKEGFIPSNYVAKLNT
# Procedure: The ability of spirolactams to bind to SH3 domains was assessed by measuring their ability to inhibit the binding of cononical proline-rich peptide to purified Lyn SH3 domain. This inhibition was measured by surface plasmon resonance.
# Lyn SH3-GST fusion proteins were generated as previously described (Pleiman, et al., Mol & Cellular Biol. 13(9):5877 (1993)), purified from bacterial lysates by glutathione affinity chromatography and eluted by competition. Aggregates were removed by size exclusion chromatography on Sephadex 75 (Pharmacia Biotech, Uppsala, Sweden).
# Surface plasmon resonance measurements were performed on a BIAcore 2000 biosensor (BIAcore AB, Uppsala, Sweden). A synthetic canonical proline-rich peptide derived from phosphatidylinositol 3 kinase p85 (Pleiman, et al., (1994) Science 263:1609 (1994)); GGGKPRPPRPLPVAPGSS (SEQ ID NO:5) was immobilized on a prepared streptavidin coated sensor chip (Sensor Chip SA, BIAcore AB) via an N-terminal biotin moiety at a density of 0.05 pmol/mm^2. […] Dissociation was monitored during subsequent washing of the chip with running buffer for an additional 5.0 minutes. […]
# To test their activity, 0.01-100 μM spirolactam or non-biotinylated canonical peptide was incubated with the fusion protein prior to injection. Data were recorded in real-time as sensorgrams and analyzed subsequently using BIA evaluation 2.0 software (BIAcore AB).
# [1] = biological target: Lyn SH3-GST fusion protein; test: SPR competition, compound (0.01-100 uM) incubated with Lyn SH3-GST before injection over immobilized biotinylated p85 peptide
Molecule,Percent Binding (Relative binding affinity to SH3 domain) (Lyn SH3 domain),Percent Binding [1]
"Ac-GGGKPRPPRPLPVAPGSS-OH [Ac-GGGKPRPPRPLPVAP-GSS-OH, non-biotinylated canonical proline-rich peptide derived from phosphatidylinositol 3 kinase p85, reference compound]",81%,–
Ac-GGGKPRPPRPLPVAPGSS-OH [Ac-…-OH],–,81%
